Reference: patent publication US20250084152A1 (DUKE UNIVERSITY, published 2025)

T1: B/MY04 N135R EHA2 (Influenza B virus B/Malaysia/2506/2004, UniProt P03461 374-538)
T1 chain: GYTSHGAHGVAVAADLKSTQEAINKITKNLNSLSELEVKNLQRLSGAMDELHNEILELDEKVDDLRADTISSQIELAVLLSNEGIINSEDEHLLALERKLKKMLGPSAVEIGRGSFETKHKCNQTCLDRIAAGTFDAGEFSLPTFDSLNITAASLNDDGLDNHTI


Tests used:
B/MY04 N135R EHA2 [1] = biological target: T1, B/MY04 N135R EHA2; assay: ELISA, rIgG (FIG. 13)
B/MY04 N135R EHA2 [2] = biological target: T1, B/MY04 N135R EHA2; assay: ELISA, rIgG (FIG. 20A)

Row | Binder | binding result (B/MY04 N135R EHA2 [1]) | binding result (B/MY04 N135R EHA2 [2])
1 | M94 (antibody, V domains shown) VH: QVQLVESGAEVKRPGASVKVACKASEYRFAASYIHWVRQAPGQGLEWMGWINLNSGDTKSSQKFQGWVTLTRDTSINTVYMEMTNLKFDDTAIYYCAKIILGGGGLDVWGQGTTVTVSS VL: QSVLTQPRSVSGSLGQSVTISCSGTSTDVGSYEFVSWYQHHPGKAPKLIIYDVSKRPSGVPDRFSGSKSGNTASLAVSGLQSDDEADYYCSSYADTSNTWVFGGGTKLTVL | no binding | –
2 | 351-52 (antibody, V domains shown) VH: QVQLAQSGAEVRKPGASVKVSCKASGYTFTDYYIHWVRQAPGQGLEWMGWINPDSGRTNYAQRFQGRVSMTSDTSISTAYMDLSRLRSDDTAVYFCAREGAHNYQHFDHWGQGTLVTVSA VL: EIVLTQSPDTLSLSPGESATLFCRASQSVRSSYLAWYQQTPGQAPRLLIYGASSRATGIPDRFSGSGSGTDFTLTISRLEPEDFAVYYCQQFGRSSWTFGQGTKVEIK | no binding | –
3 | C1_ID26079-156194 (antibody, V domains shown) VH: QVQLVQSGAEVKKPGASVKVSCKASGYTFTGNYMHWVRQAPGQGLEWMGWINPDSGGTNYAQRFQGRVTMTRDTSISTAYMELSRLTSDDTAMYYCARVMLRSSGFDSWGQGTLVTVSS VL: QSALIQPASVSGSPGQSITISCTGTSSDVGTYNLVSWYQQHPGKVPKLMIYEASERPSGVSNRFSGSKSGNTASLTISGLQAEDEADYYCCSYAGNSAWVFGGGTKLTVL | no binding | –
4 | S1V2-72 (antibody, V domains shown) VH: QVQLVQSGAELKKPGASVKVSCKASGYTFTGNYIHWMRQVPGQGLEWMGWINPRTGDTHHAQKFQGRVDMTRDTSINTAYLELTRLESDDTALYYCARCVFATSQFDPWGQGTLVTVSS VL: QSALTQPASVSGSPGQSITISCTGTNSDIGSHNLVSWYQQHPGKAPKVMIYDDSKRPSGVSNRFSGSKSGSTASLTISGLQSEDEADYYCCSYAGSSNWVFGGGTKLTLL | – | no binding
